Several values for one entry are separate records, joined by “and”; a condition that tells them apart may be missing. Equal values may be shown once.
Key:
[1] = biological target: GST-human CD81-LEL (human) (UniProt P60033); experiment: ELISA, plate coated with GST-CD81-LEL, 30-fold concentrated HCVpp, detection with 2C1 mAb, GST background subtracted, relative to wt (Cp7) HCVpp
[2] = biological target: GST-human CD81-LEL (human) (UniProt P60033); experiment: ELISA, plate coated with GST-hCD81-LEL, eE2 detected with anti-human-Fc
[3] = biological target: human CD81 (co-receptor on Huh-7.5 cells) (human) (UniProt P60033); experiment: cell-based or functional assay

For “HCVpp carrying E2 C6A (from UniProt P26660 384-750; P26660 192-383)”, the percentage of CD81 binding relative to the wild type [1] was 14.2%.
For “eE2-C6A (Fc-tagged, cell supernatant) (from UniProt P26660 384-664) (Fc fusion)”, the binding capacity relative to wild type eE2 [2] was less than 20%.
With “purified eE2 (Fc tag removed) (from UniProt P26660 384-664)” the blocking of HCVcc (Cp7) infectivity of Huh-7.5 cells [3] was 60% and 70%.
“purified eE2-C6A (Fc tag removed) (from UniProt P26660 384-664)” gave a blocking of HCVcc (Cp7) infectivity of Huh-7.5 cells [3] of 25%.
In the case of “purified eE2-C17S (from UniProt P26660 384-664)”, the blocking of HCVcc (Cp7) infectivity of Huh-7.5 cells [3] is reported as 60% and 70%.

From US20140105931A1
